The nanobody polyreactivity screen of Harvey et al. (2022)

Experiment: yeast display, Sf9 membrane polyspecificity reagent, FACS + sequencing; frameworks hold sequencing errors
Outline: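 A nanobody's polyreactivity label depends on the gate it was sorted from. Yeast display cells were stained with 10% biotinylated, detergent-solubilized Sf9 membrane reagent for 1 hour at 4 °C, enriched on streptavidin microbeads and sorted by FACS. The low and high (top ~1%) gates were set on anti-HA fluorescence for expression and streptavidin fluorescence for reagent binding.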

| Sequence | polyreactivity (PSR sort gate) |
| --- | --- |
| QVQLVESGGGLVQAGGSLRLSCAASRSIFGIYTMGWSRQEPGKERELVAAIKSGGSTNYADSVKGRFTITRDNAKNTVYLQMNSKKPEDTAVYYCNAYIHPPGPRVYSREYDYWGQGTQVTVSS | low polyreactivity |
| QVQLVESGGGLVQAGGSLRLSCAASRSIFQSYDMGWYRQAPGKERELVAAISWSGSTTYYADSVKGRFTISRDNAKNTVYLQMNSLKPEDTAVYYCAFDSNTPDWWAVIYGYWGQGTQVTVSS | low polyreactivity |
| QVQLVESGGGLVQAGGSLRLSCAASRSIFVRNAMGWYRPAPGKERELVAAITSDVNTYYADSVKGRFTISRDNAKNTVYLQMNSLKPEDTAVYYCAKGVTSQPNDPAPFPRYEYWGQGTQVTVSS | low polyreactivity |
| QVQLVESGGGLVQAGGSLRLSCAASRSTFRDNAMGWYRQAPGKVRELVAGITRGGITNYADSVKGRYTISRDNAKNTVYLQMNSLKPEDTEVYYFAAEVTGTYYDYDYWGQGTQVTVSS | low polyreactivity |
| QVQLVESGGGLVQAGGSLRLSCAASTYLRLLMLWDGIDLRLGKKGSWLTLLTLVVNSTYYADSVKGRFTISRDNAKNTVFLQMNSLKPEDTAVYYCNVDPYGTYARTHLEYWGQGTQVTVSS | low polyreactivity |
| QVQLVESGGGLVQAGGSLRLSCAASVFIFPHYTMGWYRQAPGKERELVAAISSSGGSTYYADSVKGRFTISRYNAKNTVYLQMNSLKPEDSADYYCPGPLPYYGQYDYWGQGTQVTVSS | low polyreactivity |
| QVQLVESGGGLVQAGGSLRLSCAASVFTFAPNAMGWYRQAPGKERELVAVIDSGGSTNYADSVKGRFTISRDNAKNTVYLQMNSLKPEDTAVYYCATDVPLDYYWLWDDYWGQGTQVTVSS | low polyreactivity |
| QVQLVESGGGLVQAGGSLRLSCAASVFTFNDYAMGWYRQAPGKERELVAAIDWSGGRTYYADSVKGRFTISRDNAKNTVYLQMNSLKPEDTAVYYCAAVLYSRLYWYRLDYWGQGTQVTVSS | low polyreactivity |
| QVQLVESGGGLVQAGGSLRLSCAASVFTFTKYAMGWYRQAPGKERELVAAITRRGGRTYYADSVKGRFTISRDNAKNTVYLQMNSLKPEDTAVYYFNADIIWGSVSNGSEYDYWGQGTQVTVSS | high polyreactivity |
| QVQLVESGGGLVQAGGSLRLSCAASVFTSLIYAMGWYRPAPGKERELVATLTWGGGSTYADSVKGRLTISRDNAQNTVYLQMNSLKPVDTAVYDCKADIYDSWVYATVYSDRYDYWGQGTQVTVSS | low polyreactivity |
| QVQLVESGGGLVQAGGSLRLSCAASVFYPYAMGWYRQAPGKERELVAAISWSGGRTYYADSVKGRFTISRDNAKNTVYLQMNSLKPEDTAVYYCNKVYSSYRVYDFNYWGQGTQVTVSS | high polyreactivity |
| QVQLVESGGGLVQAGGSLRLSCAASVIICPDNAMGWDRPAPGKERELVAAITQSRGSTFYADSVKGRFTISRDNAKNTVYLQMKSLKPEDTAVYYCNAYRKFRYWGQGTQVTVSS | high polyreactivity |
| QVQLVESGGGLVQAGGSLRLSCAASVISFARNVMGWYRQATGKERELVAGISRRGGSTYYADSVKGRFTISRDNAKNTVYLQMNSLKPEDTAVYYCAAEYIRNGDYGLDYWGQGTQVTVSS | high polyreactivity |
| QVQLVESGGGLVQAGGSLRLSCAASVITFVFYAMGWYRQAPGKEREFVAGITWRGGRTYYADSVKGRFTISRDNAKNTVYLQMNSLKPEDTAVYYCNARSVVLTGGDYWGQGTQVTVSS | high polyreactivity |
| QVQLVESGGGLVQAGGSLRLSCAASVITVRSYAMGWYRQAPGKERELVARISTDADTYYADSVKGRFTISRDNAKITVYLHMNSLKPEDTAVYYCAAEDYWDFDYWGQGTQVTVSS | low polyreactivity |
| QVQLVESGGGLVQAGGSLRLSCAASVITYFVYAMGWYRQAPGKERELVAAITSGDSTSYADSVKGRFTISRDNAKNTVYLQMNSLKPEDTAVYYCAAEQVTIEDGVYFDFNSWGQGTQVTVSS | low polyreactivity |
| QVQLVESGGGLVQAGGSLRLSCAASVKIFAWYALGWYRKAPGKEMELVADISSRGGSTYYADSVKGRFTISRDNAKNTVYLQMNSLKPEDTAVYYCAAVWYWTQDYDYWGQGTQVTGSS | low polyreactivity |
| QVQLVESGGGLVQAGGSLRLSCAASVLTFVDYAMGWYRQAPGKERELVAAITSSGGSITYYADSVKGRFTISRDNAKNTVYLQMNSLKPEDTAVYYCNADYGIYTDSFRGQDYESWGQGTQVTVSS | low polyreactivity |
| QVQLVESGGGLVQAGGSLRLSCAASVNIFQSYTMGWYRQAPGKERELVARITARGGRTYYADSVQGRFTISRDNANNTVYLQMNSLKPEDTAFYYCAAQHRGPYGVDYWGQGTQVTVSS | high polyreactivity |
| QVQLVESGGGLVQAGGSLRLSCAASVNIFSFYAMGWNRQAPGKERELVAAIIWSGGDTYYADSVKGRFTISLDNAKNTVYLQMNSLKPEDTAVYYCAAEYYYQYYPGGYDYWGQGSQVTVSS | high polyreactivity |
| QVQLVESGGGLVQAGGSLRLSCAASVRIFGYYAMGWNRQAPGTERELVATINSVGSTNYADSVKGRFTISRDNAKNTVYLQMNSLKPEDTAVYYCATDSAYTFFTYRLWRHGYWGQGTQVTVSS | low polyreactivity |
| QVQLVESGGGLVQAGGSLRLSCAASVRIFPIYAMGWYRQAPGKERELVAAIDSGGSTTYADSVKGRFTISRDNAKNTVYLQMNSLKPEDTAVYYCSAKGAYPYWYPVAYRYDYWGQGTQVTVSS | low polyreactivity |

| Sequence | polyreactivity (PSR sort gate) |
| --- | --- |
| QVQLVESGGGLVQAGGSLRLSCAASVRIFSGYAMGWYRQAPGKERELVAAISQRGGSTTYADSVKGRFTISRDNAKNTVYLQMNSLKPEDTAVYYCAKRYTYPSGYDYWGQGTQVTVSS | low polyreactivity |
| QVQLVESGGGLVQAGGSLRLSCAASVRIFVYYAMGWYRQAPGKERELVASISYSGASTYYADSVKGRFTISRDNAKKTVYLQMNSLKPEDTAVYYCNTDGDDFFHVIYDYWGQGTQVTVSS | low polyreactivity |
| QVQLVESGGGLVQAGGSLRLSCAASVRIYGSNVMGWYRQAPGKERELVASISSGGTTYYADSVKGRFTISRDNAKNTVYLQMNSLKPEDTAVYYCAKQWTRIYQYRWYPGTRTGYDYWGQGTQVTVSS | high polyreactivity |
| QVQLVESGGGLVQAGGSLRLSCAASVRTFYRYAMGGYRQAPGKERELDAGISWRGGSTYYADSVKGRFTISRDNAKNTVYLQMNSLKPEDTAVYYCNAVTTPARTRLFKTVPYEYWGQGTQVTVSS | high polyreactivity |
| QVQLVESGGGLVQAGGSLRLSCAASVRTFYYYAMGWYRQAPGKERELVAAIRWSTGSTYYADSVKGRFTISRDNAQNTVYLQMNSLKPEDTAVYYCAADTWYIQWGYYWGQGTQVTVSS | low polyreactivity |
| QVQLVESGGGLVQAGGSLRLSCAASVRTMRTYTMGWYRQAPGIERELVAAISSSDDSTYYADSVKGRFTISRDNEKNTVYLQMNSLKPEDTAVYYCAKDGLYPTEYGYWGQGTQVTVSS | high polyreactivity |
| QVQLVESGGGLVQAGGSLRLSCAASVRTSSKYALGWYRQAPGKERELVAGISASGTRTYYADSVKGRFTISRDNAKNTVYLQMNSLKPEDTAVYYCATSFFWYYYWGQGTQVTVSS | high polyreactivity |
| QVQLVESGGGLVQAGGSLRLSCAASVRTVDSYTMGWYRQAPGKERELVAAIRSSGGRTYADSVKGRFTISRDNAKNTVYLQMNSLKPEDTAVYYCAAARSYWAKYYYWGQGTQVTVSS | high polyreactivity |
| QVQLVESGGGLVQAGGSLRLSCAASVSIFETYAMGWSRQAPGKERELDAAISSSGGTTYYADSVKGRFTISRDTAKNTVYLQMNSLKPEDTAVYYCAARSAATHWTFLFYYDFDYWGQGTQVTVSS | low polyreactivity |
| QVQLVESGGGLVQAGGSLRLSCAASVSIFFSYAMGWYRQAPGKERELVASITWSGDTTYYADSVKGRFTISRDNAKNTVYLQMNSLKPEDTAVYYCAAVNRGGYDYWGQGTQVTVSS | low polyreactivity |
| QVQLVESGGGLVQAGGSLRLSCAASVSIFGSNAMRWYRQAPGKERELVAVITNGGRTYYADSVKGRFTISRDNAKNTVFLQMNSLKPEDTAVYYCAASRVYGWYGSYSTYGSWGQGTQVTVSS | high polyreactivity |
| QVQLVESGGGLVQAGGSLRLSCAASVSIFGYNTMGRYRQAPGKERELVARIRASGGSTYYADSVKGRFTISRDNAKNTVYLQMNSLKPEDTAVYYCAKYLRGSWVRQFGSTYDYWGQGTQVTVSS | high polyreactivity |
| QVQLVESGGGLVQAGGSLRLSCAASVSIFISYAMGWYRQAPGKERELVAAISSGGSTNYADSVKGRFTISRDNAKNTVYLQMNSLKPEDTAVYYCAADGWLWSFTGDGWWFDDWGQGTQVTVSS | low polyreactivity |
| QVQLVESGGGLVQAGGSLRLSCAASVSIFRVNTMGWYRQAPGKERELVATISSGARTNYADSVKGRFSISRDNAKNTVYLQMNSLKPEDTAVYYCATRYRRVYTWYDYWGQGTQVTVSS | high polyreactivity |
| QVQLVESGGGLVQAGGSLRLSCAASVSIFTAYPRGWYRQAPGKERELVAAISNGGSTYYADSVKGRFTISRDNAKNTVYLQMNSLKQEDTAVYYCAADSVQFQPDDEYWGQGTQVTVSS | low polyreactivity |
| QVQLVESGGGLVQAGGSLRLSCAASVSIFWSYAMGWSRLAPGKERELVASISRSTGRTRYADSVKGRFTFSRDNAKNTVDLQMNSLKPEDTAVYYCNAEKRGQSYRFDYWGQGTQVTVSS | high polyreactivity |
| QVQLVESGGGLVQAGGSLRLSCAASVSIFYRNARGWYRQEPGKEREMVAAISSSVSSTYYADSVKGRFTISRDNAKNTVYLQMNSLKPEDTAVYYCAARRFQRGGDYFYRYLYDYWGQGTQVTVSS | low polyreactivity |
| QVQLVESGGGLVQAGGSLRLSCAASVSTFSTYAMGWYRQAPGKERELVAASTWRGSSTYYADSVKGRFTISRDNAKKTVYLQMNSLKPEDTAVYYCAAEDTFYEYYYWGQGTQVTVSS | high polyreactivity |
| QVQLVESGGGLVQAGGSLRLSCAASVSTFVGNAMGWYRQAPGKERELHAAISSGGSRTNYADSVKGRFTISRDNAKNTVYLQMNSLKPEDTAVYYCIAVFPRWQGSGRFAGGDYWGQGTQVTLSS | high polyreactivity |
| QVQLVESGGGLVQAGGSLRLSCAASVSTFYRNAMGWYRQAPGKERELVADISASGGSTYYADSVKGRFTISRDNAKNTVYLQMNSLKPEDTAVYYCNALYFYFYNYLTIVYWGQGTQVSVSS | low polyreactivity |
| QVQLVESGGGLVQAGGSLRLSCAASVSTVSYNAMGWYRQAPGKERELVAAISGSGGTTYYADSVKGRFTISRDNAKNTVYLQMNSLKPEDTAVYYCAARPFRSWRYDYWGQGTQVTVSS | low polyreactivity |
